Experimental data published in PMC11502334, “Fungal glyceraldehyde 3-phosphate dehydrogenase GpdC maintains glycolytic mechanism against reactive nitrogen stress-induced damage” (Frontiers in Microbiology, 2024).

B1: rGpdA (GpdA) (Aspergillus nidulans FGSC A4) (protein)
chain: MAPKVGINGFGRIGRIVFRNAIEAGTVDVVAVNDPFIETHYAAYMLKYDSQHGQFKGTIETYDEGLIVNGKKIRFHTERDPANIPWGQDGAEYIVESTGVFTTQEKASAHLKGGAKKVVISAPSADAPMFVMGVNNETYKKDIQVLSNASCTTNCLAPLAKVINDNFGIIEGLMTTVHSYTATQKVVDGPSAKDWRGGRTAATNIIPSSTGAAKAVGKVIPSLNGKLTGMAMRVPTSNVSVVDLTVRTEKAVTYDQIKDAVKKASENELKGILGYTEDDIVSTDLNGDTRSSIFDAKAGIALNSNFIKLVSWYDNEWGYSRRVVDLITYISKVDAQ
notes: recombinant from cDNA, vector pET-21a, expressed in E. coli BL21 (DE3), HisTrap purified
B2: rGpdC (GpdC) (Aspergillus nidulans FGSC A4) (protein)
chain: MAPSINEIPISDSPSACRVGINGFGRIGRNVLRVALARNDIQIVAINHTCTSVQDLIYLIRYDSSMGKLSPDIPIHAISETQISVNGRPIALTSERDLKKLNWAALGAEYVVECTGKFTKRELAQDHITYGGAKRVVISAPSSDSPTYVYGVNADEYRANEETRVISCASCTTNCVTPVLKVLQREFGIAQGFLTTVHAATKSQTVLDGYSKKNRRLGRSVFDNIIPTTTGAAKAIASVLPELTGKVTGASIRVPTPNVSLIDLTVSTETPTSLAEILAAFRRAAKNELAGVLSVSDEVLVSSDYLGDSHSAIVDAAACSELNPTFFKIMAWYDNEWGYSSRLLDLTRHIAHNE
notes: recombinant from synthetic E. coli codon-optimized gene, vector pET-21a (Nde I/Hind III), expressed in E. coli BL21 (DE3), HisTrap purified

What was measured:
Experiment in all cases: purified protein
Type in all cases: biochemical, Aspergillus nidulans
[1] = substrate: O=C[C@H](O)COP(=O)(O)O; details: 30 mM sodium pyrophosphate, 10 mM potassium phosphate, pH 8.4, 25°C
[2] = substrate: NC(=O)c1ccc[n+]([C@@H]2O[C@H](COP(=O)(O)OP(=O)(O)OC[C@H]3O[C@@H](n4cnc5c(N)ncnc54)[C@H](O)[C@@H]3O)[C@@H](O)[C@H]2O)c1; details: GAP as co-substrate, 30 mM sodium pyrophosphate, 10 mM potassium phosphate, pH 8.4, 25°C, varied: cofactor
[3] = substrate: NC(=O)c1ccc[n+]([C@@H]2O[C@H](COP(=O)(O)OP(=O)(O)OC[C@H]3O[C@@H](n4cnc5c(N)ncnc54)[C@H](OP(=O)(O)O)[C@@H]3O)[C@@H](O)[C@H]2O)c1; details: GAP as co-substrate, 30 mM sodium pyrophosphate, 10 mM potassium phosphate, pH 8.4, 25°C, varied: cofactor
[4] = co-substrate (NAD+ or NADP+) not given

Protein	Km ([1]; NAD+ as co-substrate) [µM]	kcat ([1]; NAD+ as co-substrate) [s⁻¹]	kcat/Km ([1]; NAD+ as co-substrate) [M⁻¹ s⁻¹]	Km [2] [µM]	kcat [2] [s⁻¹]	kcat/Km [2] [M⁻¹ s⁻¹]	Km [1, 4] [µM]	kcat [1, 4] [s⁻¹]	kcat/Km [1, 4] [M⁻¹ s⁻¹]	Km [3] [µM]	kcat [3] [s⁻¹]	kcat/Km [3] [M⁻¹ s⁻¹]
B1	410 ± 90	55 ± 3.33	132000 ± 40000	180 ± 30	85 ± 3.33	467000 ± 117000	–	–	–	–	–	–
B2	–	–	–	420 ± 20	4 ± 0.333	9330 ± 333	290 ± 20	2.67 ± 0.333	9170 ± 333	47 ± 2	8.83 ± 0.5	183000 ± 16700
